Assay in all cases: SPR
Common to all, as to conditions: not given in the material (no Methods text)

Data set [1] concerns the target T1, EfPiwi (Ephydatia fluviatilis) (UniProt D5MRY8).
T1 sequence: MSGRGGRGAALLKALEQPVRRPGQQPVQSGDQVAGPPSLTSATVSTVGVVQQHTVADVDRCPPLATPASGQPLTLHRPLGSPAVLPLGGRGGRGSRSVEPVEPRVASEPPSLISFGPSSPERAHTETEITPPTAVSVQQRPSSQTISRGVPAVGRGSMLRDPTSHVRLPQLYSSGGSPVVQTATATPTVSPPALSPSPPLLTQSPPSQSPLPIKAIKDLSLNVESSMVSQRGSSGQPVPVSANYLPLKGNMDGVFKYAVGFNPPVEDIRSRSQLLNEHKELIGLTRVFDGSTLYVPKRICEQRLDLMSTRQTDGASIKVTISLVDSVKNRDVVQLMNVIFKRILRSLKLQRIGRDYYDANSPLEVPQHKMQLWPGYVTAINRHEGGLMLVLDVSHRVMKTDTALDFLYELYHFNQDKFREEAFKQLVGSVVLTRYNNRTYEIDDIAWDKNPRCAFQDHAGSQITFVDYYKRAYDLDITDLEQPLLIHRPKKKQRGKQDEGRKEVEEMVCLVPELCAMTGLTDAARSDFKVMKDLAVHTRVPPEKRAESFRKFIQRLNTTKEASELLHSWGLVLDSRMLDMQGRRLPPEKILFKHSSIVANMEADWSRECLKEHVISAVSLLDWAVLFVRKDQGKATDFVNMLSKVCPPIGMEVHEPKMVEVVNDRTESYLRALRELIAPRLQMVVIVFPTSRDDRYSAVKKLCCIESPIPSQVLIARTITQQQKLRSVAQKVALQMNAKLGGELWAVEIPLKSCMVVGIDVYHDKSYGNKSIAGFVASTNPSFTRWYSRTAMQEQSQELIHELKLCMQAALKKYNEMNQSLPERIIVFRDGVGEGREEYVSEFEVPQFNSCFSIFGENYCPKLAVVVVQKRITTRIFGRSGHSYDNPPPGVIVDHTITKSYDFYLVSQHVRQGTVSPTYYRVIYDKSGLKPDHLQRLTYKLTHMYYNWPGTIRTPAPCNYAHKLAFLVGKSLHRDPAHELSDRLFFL

In data set [2] the target is MILI (PIWIL2) (mouse) (UniProt Q8CDG1).
For data set [3], the target named is HILI (PIWIL2) (human) (UniProt Q8TC59).

Binding signal (fold higher KD than MILI or HILI) and binding signal (fold higher affinity than EfPiwi) data for two substances are collected here from doi:10.1101/2023.06.23.546240.

Chain of MILI (PIWIL2) (mouse) (Q8CDG1 whole entry): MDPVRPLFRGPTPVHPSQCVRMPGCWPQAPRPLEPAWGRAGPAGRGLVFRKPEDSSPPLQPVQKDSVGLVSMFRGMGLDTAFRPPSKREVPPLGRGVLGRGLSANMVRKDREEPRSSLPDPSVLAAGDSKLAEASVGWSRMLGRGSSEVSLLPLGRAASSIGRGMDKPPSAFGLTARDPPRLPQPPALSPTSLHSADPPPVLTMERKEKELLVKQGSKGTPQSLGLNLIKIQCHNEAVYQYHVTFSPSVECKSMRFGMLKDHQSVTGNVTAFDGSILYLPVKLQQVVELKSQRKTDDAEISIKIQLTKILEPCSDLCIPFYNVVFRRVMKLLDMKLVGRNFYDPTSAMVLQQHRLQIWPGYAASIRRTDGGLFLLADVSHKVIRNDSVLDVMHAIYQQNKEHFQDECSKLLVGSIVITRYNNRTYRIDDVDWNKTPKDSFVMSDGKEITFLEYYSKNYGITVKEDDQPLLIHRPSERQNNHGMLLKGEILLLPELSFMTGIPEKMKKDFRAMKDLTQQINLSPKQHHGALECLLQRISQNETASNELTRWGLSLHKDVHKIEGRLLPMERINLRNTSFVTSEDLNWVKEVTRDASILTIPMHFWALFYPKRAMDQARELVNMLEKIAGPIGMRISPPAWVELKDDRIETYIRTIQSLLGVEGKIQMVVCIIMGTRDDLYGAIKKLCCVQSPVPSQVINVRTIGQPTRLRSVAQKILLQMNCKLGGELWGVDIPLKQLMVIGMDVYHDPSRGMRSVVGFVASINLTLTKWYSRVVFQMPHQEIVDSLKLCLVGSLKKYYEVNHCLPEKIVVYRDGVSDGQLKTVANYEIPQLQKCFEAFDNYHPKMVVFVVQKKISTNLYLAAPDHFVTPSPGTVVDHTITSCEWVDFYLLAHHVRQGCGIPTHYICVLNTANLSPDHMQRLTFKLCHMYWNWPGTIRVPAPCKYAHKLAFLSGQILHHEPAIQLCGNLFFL
Chain of HILI (PIWIL2) (human) (Q8TC59 whole entry): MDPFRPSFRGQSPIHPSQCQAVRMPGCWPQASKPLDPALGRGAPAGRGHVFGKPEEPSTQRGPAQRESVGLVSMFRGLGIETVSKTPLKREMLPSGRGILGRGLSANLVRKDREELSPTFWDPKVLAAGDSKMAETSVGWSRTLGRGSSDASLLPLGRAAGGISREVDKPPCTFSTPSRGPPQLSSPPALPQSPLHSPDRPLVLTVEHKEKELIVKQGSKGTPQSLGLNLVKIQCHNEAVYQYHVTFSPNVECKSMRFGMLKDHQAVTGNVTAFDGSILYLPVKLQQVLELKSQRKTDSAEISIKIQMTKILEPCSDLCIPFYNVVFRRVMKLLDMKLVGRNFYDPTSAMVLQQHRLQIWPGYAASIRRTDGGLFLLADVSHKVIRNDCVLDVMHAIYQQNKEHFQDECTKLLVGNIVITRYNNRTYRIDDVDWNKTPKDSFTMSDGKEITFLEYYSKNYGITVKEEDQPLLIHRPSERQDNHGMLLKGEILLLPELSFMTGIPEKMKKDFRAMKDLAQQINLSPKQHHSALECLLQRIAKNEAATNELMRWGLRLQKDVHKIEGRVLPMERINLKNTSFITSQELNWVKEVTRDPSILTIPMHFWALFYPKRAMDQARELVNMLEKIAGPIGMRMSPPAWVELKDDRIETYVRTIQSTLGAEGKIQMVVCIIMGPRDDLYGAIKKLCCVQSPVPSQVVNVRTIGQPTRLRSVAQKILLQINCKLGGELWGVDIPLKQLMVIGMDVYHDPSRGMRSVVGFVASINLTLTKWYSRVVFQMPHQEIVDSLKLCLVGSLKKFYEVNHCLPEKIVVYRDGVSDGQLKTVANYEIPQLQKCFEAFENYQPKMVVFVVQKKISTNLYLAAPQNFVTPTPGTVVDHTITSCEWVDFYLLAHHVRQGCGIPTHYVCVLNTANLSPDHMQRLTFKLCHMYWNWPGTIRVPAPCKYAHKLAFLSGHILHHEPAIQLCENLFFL

In data set [1], “piRNA guide + target with g3-g4 dinucleotide mismatch” came in with a binding signal (fold higher KD than MILI or HILI) of 20.
On to “piRNA guide + seed-complementary (g2-g8) target”, for which the binding signal (fold higher affinity than EfPiwi) in data set [2] and in data set [3] was 6 throughout.
